Source: patent US12630850B2, “Enzymatic break down of chlorogenic acid in sunflower-containing products” (Chapman University, priority 2022, dated 2026)
Read-outs that look alike come from different tables or passages of the source.

Experiments:
[1] = CGA esterase kinetics in sunflower meal; assay type: biochemical
Procedure: Chlorogenic acid esterase kinetics in sunflower meal. To determine the Michaelis-Menten parameters of CGA esterase in undefatted SFM, SFM suspensions were made at following concentrations: 1.0 mg mL^−1, 2.5 mg mL^−1, 10.0 mg mL^−1, 30.0 mg mL^−1, and 100.0 mg mL^−1. All samples were made to a final volume of 10 mL in a solution containing 50 mM HEPES, pH 8.0. Treated samples contained a final enzyme concentration of 10 nM. Reactions were stopped by acidifying the solution by adding 120 μL of 37% HCl at regular intervals for 600 s. Samples were subsequently centrifuged at 10,000 rpm for 10 min. […] The supernatant was then filtered using a 0.2 μm filter and loaded onto an HPLC, as described above. The initial amount of CGA that was present prior to adding enzyme was measured using HPLC.
HPLC quantification of CGA and CA in sunflower meal and protein isolates. All solutions were diluted ten-fold in 0.1% formic acid in HPLC-grade water before analysis. Quantification of CGA and CA concentration was performed using an Agilent 1260 series HPLC instrument (Agilent Technologies) equipped with a quaternary pump, an automated sample injector, a diode array detector, and a 4.6 mm×150 mm Luna C18(2) column with a 5 μm particle size and 100 Å pore size (Phenomenex). The injection volume was 20 μL. To elute analytes, mobile phases composed of 0.1% formic acid in HPLC-grade water (A) and 0.1% formic acid in HPLC-grade acetonitrile (B) were used in a linear gradient. The gradient is as follows: 0 to 13% B in 1 min, up to 27% B at 8 min, up to 100% B at 8.5 min, isocratic at 100% B to 9.5 min, 100% B returned to 0% B at 9.6 min with 3 min post-time. The concentrations of CGA and CA were calculated from peak integration data based on 10-point standard curve that spanned a concentration range of 0 to 0.1 mg mL^−1.

[2] = HPLC quantification of CGA in sunflower butter cookies; assay type: biochemical; conditions: SFB cookies; both levels, 1.72×10^−1 and 1.72×10^−2 mg/g butter
From the text: Cookie formulations and baking conditions. The cookie dough formulation consisted of baking soda (2.2 g), salt (2.2 g), whole egg (46.8 g), maple syrup (76.3 g), vanilla extract (2.2 g), flour (145.8 g), and butter (87.5 g). CGA esterase treatments in SFF, utilized almond butter instead of SFB. The wet (sunflower or almond butter, maple syrup, eggs, and vanilla extract) and dry (flour, baking soda, and salt) ingredients were mixed separately and subsequently combined and mixed for 75 s with an electric hand mixer. The dough was rolled out and cut to the following dimensions: 6 mm thickness and 40 mm diameter. Cookies were baked for 7 min in a convection oven preheated to 149° C. (300° F.) and allowed to cool at room temperature for 10 min before further analysis.
Preparation of sunflower butter cookies with chlorogenic acid/CGA esterase. […]
High-performance liquid chromatography (HPLC) quantification of phenolic content in sunflower cookies. […] The extract was filtered through 0.20 μm syringe filters and analyzed with an Agilent 1260 Infinity II system (Agilent Technologies) equipped with a quaternary pump (G7111B), vial sampler (G7129A), and diode array detector (HS G7117C). […] CGA and caffeic acid concentrations were detected at 320 nm and quantified using a standard curve between 0.00-0.10 mg ml^−1 CGA (y=172287x, R^2=0.994) and caffeic acid (y=248557x, R^2=0.967).

[3] = Song & Baik, 2017; cited from earlier work
[4] = SFM supernatant, pH 8.0, 20° C.

B1: CGA esterase: CGA esterase from L. helveticus (Genbank ID: WP_025283955.1, Uniprot ID: U6F2K7), expressed in Escherichia coli; the dimer is the active form (protein, listed as Lactobacillus helveticus)
chain: MSRITIERDGLTLVGDREEPFGEIYDMAIIMHGFAANRNTDLLRQIADDLRDENVASVRFDFNGHGESDGKFEDMTVCNEIADGKAILDYVRTDPHVRDIFLVGHSQGGVVASMLAGLYPDVVKKVVLLAPAAQLKDDALRSNTQGATYDPNHIPDWPLVGNKLGMKLGGFYLRTAQVLPIYEVSQCFTRPVSVIAGTNDQWDPKYAKKYDEVYENSELHMIPNADHRFSGGYKDMAADLTAQFLKPAF
Question: Which results are given for B1?
Answer: Km in SFM lower than in buffered solution [1]: 4.5 fold; Meal concentration at which maximal CGA hydrolysis activity is achieved [1]: approximately 100 mg mL^−1; Vmax in SFM lower than in buffered solution [1]: 60 fold; Km [1, 4]: 20 µM; Vmax [1, 4]: 2.716 mM/min/mg; Decrease of CGA concentration [2]: 90-95%; Km [3]: 153 µM; Vmax [3]: 0.5596 mM/min/mg
